Test results: the supplement of paper PMC10126150
± gives the standard deviation of the averaged measurements.

System: ATP
Test: switch fluorescence ratio, 500 uM ATP over buffer (Cy3 cluster intensity, sum of 5 cycles each) (fold (ratio)); higher = stronger signal-on switching upon ATP binding; sequences stand for … in TCGTCGGCAGCGTCAGATGTGTATAAGAGACAGTTTTTTTTTTTTTTTTTTTTTTTTT…TC
Conditions: aptamer strand: ATP DNA aptamer (quencher-CACCTGGGGGAGTATTGCGGAGGAAGG + anchor), 100 nM annealed; ATP concentration: 500 uM
Summary of the method: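 Switching-strand clusters labelled with Cy3 on a modified Illumina MiSeq flow-cell were annealed to 100 nM quencher-labelled ATP aptamer, imaged in selection buffer, and re-imaged after 15 min with 500 uM ATP at 22 °C. This was done over five cycles with NaOH stripping and re-annealing in between. The fluorescence ratio is summed target-cycle over summed buffer-cycle Cy3 intensity per cluster, averaged per switch-domain sequence, excluding clusters outside 100-1000 RFU.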
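Note: ATP exposure 15 min at 22 °C before imaging.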

| Sequence | switch fluorescence ratio |
| --- | --- |
| CGGGGTGTTT | 1.012 ± 0.0055 |
| CGGGGTTCGT | 0.983 ± 0.028 |
| CGGGGTTGAA | 0.998 ± 0.03 |
| CGGGGTTTGA | 1.02 ± 0.028 |
| CGGGGTTTGT | 1.01 ± 0.011 |
| CGGGGTTTTT | 1.03 ± 0.12 |
| CGGGTAAGT | 1 ± 0.022 |
| CGGGTAGGTA | 1 ± 0.012 |
| CGGGTCCGTA | 0.9751 ± 0.004 |
| CGGGTCGGGG | 0.998 ± 0.025 |
| CGGGTCTTGG | 1.03 ± 0.023 |
| CGGGTGAAGG | 1.06 ± 0.049 |
| CGGGTGGCAG | 1.01 ± 0.061 |
| CGGGTGGCGG | 0.994 ± 0.012 |
| CGGGTGGTGC | 1.014 ± 0.0086 |
| CGGGTGGTTC | 0.994 ± 0.012 |
| CGGGTGTAAG | 1.01 ± 0.033 |
| CGGGTGTCAC | 1.06 ± 0.024 |
| CGGGTGTGTC | 1.045 ± 0.0042 |
| CGGGTTCCAC | 1.01 ± 0.05 |
| CGGGTTTAAA | 1 ± 0.011 |
| CGGGTTTGTC | 1 ± 0.035 |
| CGGGTTTTAC | 1.01 ± 0.039 |

| Sequence | switch fluorescence ratio |
| --- | --- |
| CGGGTTTTCG | 0.988 ± 0.018 |
| CGGTAAAGCG | 0.9808 ± 0.0071 |
| CGGTAATGTT | 1 ± 0.027 |
| CGGTACACGT | 1.0186 ± 0.00031 |
| CGGTACCCAT | 1.01 ± 0.018 |
| CGGTACCGTG | 0.9844 ± 0.007 |
| CGGTACGACG | 0.94 ± 0.019 |
| CGGTACGAGC | 0.992 ± 0.046 |
| CGGTACGGAT | 0.989 ± 0.043 |
| CGGTACTTGG | 0.967 ± 0.05 |
| CGGTAGACCT | 1.105 ± 0.0037 |
| CGGTAGGACA | 1 ± 0.011 |
| CGGTAGGGTT | 0.978 ± 0.022 |
| CGGTAGTTCG | 0.955 ± 0.038 |
| CGGTATAACG | 0.997 ± 0.043 |
| CGGTATACTG | 1.04 ± 0.049 |
| CGGTATGGCT | 0.9689 ± 0.0062 |
| CGGTCAGTTT | 1.025 ± 0.0089 |
| CGGTCATATT | 0.9892 ± 0.0037 |
| CGGTCCCGGC | 1.03 ± 0.05 |
| CGGTCCGTTT | 1.02 ± 0.042 |
| CGGTCCTATG | 0.993 ± 0.029 |
| CGGTCGGTTG | 1.06 ± 0.022 |

| Sequence | switch fluorescence ratio |
| --- | --- |
| CGGTCTACCT | 1.02 ± 0.014 |
| CGGTCTATAG | 1.02 ± 0.053 |
| CGGTCTGCGA | 1.05 ± 0.013 |
| CGGTGACTGA | 0.9569 ± 0.008 |
| CGGTGAGGGA | 0.978 ± 0.044 |
| CGGTGAGGGT | 0.9863 ± 0.0071 |
| CGGTGAGTGG | 1.01 ± 0.02 |
| CGGTGGCGGG | 1.004 ± 0.0095 |
| CGGTGGGACG | 1.02 ± 0.022 |
| CGGTGGGGAC | 1.04 ± 0.13 |
| CGGTGGGGCA | 1.1 ± 0.13 |
| CGGTGGGTGT | 0.931 ± 0.011 |
| CGGTGGTCCA | 0.997 ± 0.017 |
| CGGTGGTCGC | 0.984 ± 0.019 |
| CGGTGGTGGG | 1.031 ± 0.0066 |
| CGGTGTTAAC | 0.957 ± 0.036 |
| CGGTGTTGTC | 0.964 ± 0.0037 |
| CGGTTAAAGC | 0.94 ± 0.014 |
| CGGTTAACGT | 1.01 ± 0.033 |
| CGGTTAATTT | 1.01 ± 0.027 |
| CGGTTACCGT | 0.986 ± 0.013 |
| CGGTTACGAC | 1.02 ± 0.021 |
| CGGTTACGAG | 0.9952 ± 0.0029 |

| Sequence | switch fluorescence ratio |
| --- | --- |
| CGGTTAGGAA | 1.01 ± 0.025 |
| CGGTTAGGGA | 0.965 ± 0.03 |
| CGGTTATCGG | 1.002 ± 0.0031 |
| CGGTTCGGCG | 0.987 ± 0.0099 |
| CGGTTGCCCG | 0.979 ± 0.12 |
| CGGTTGGCCT | 0.9978 ± 0.0069 |
| CGGTTGGGTA | 0.977 ± 0.014 |
| CGGTTGGGTG | 0.97348 ± 6.3e-05 |
| CGGTTGTAGG | 0.999 ± 0.015 |
| CGGTTGTCGG | 0.997 ± 0.013 |
| CGGTTGTGAG | 1.01 ± 0.031 |
| CGGTTGTGTA | 1.03 ± 0.023 |
| CGGTTTACGG | 0.986 ± 0.011 |
| CGGTTTATGA | 0.968 ± 0.016 |
| CGGTTTGAGT | 0.983 ± 0.019 |
| CGGTTTGGCA | 0.992 ± 0.014 |
| CGGTTTGTGT | 0.998 ± 0.029 |
| CGGTTTTGGC | 0.998 ± 0.019 |
| CGGTTTTTTT | 0.978 ± 0.016 |
| CGTAAAACTA | 1.03 ± 0.042 |
| CGTAAAAGAC | 1.23 ± 0.19 |
| CGTAAAATAC | 2.85 ± 0.056 |
| CGTAACCTTG | 1.023 ± 0.0071 |

| Sequence | switch fluorescence ratio |
| --- | --- |
| CGTAACGTGG | 0.9938 ± 0.0078 |
| CGTAATAGAT | 1.02 ± 0.026 |
| CGTAATGGGG | 1.022 ± 0.01 |
| CGTACAGATA | 0.994 ± 0.027 |
| CGTACAGTGG | 1.02 ± 0.046 |
| CGTACGGACG | 0.984 ± 0.021 |
| CGTACGGCGG | 1.015 ± 0.0038 |
| CGTACTCGTA | 1.01 ± 0.019 |
| CGTAGAAAAG | 0.998 ± 0.025 |
| CGTAGACGAG | 1.03 ± 0.016 |
| CGTAGACTCG | 1.02 ± 0.05 |
| CGTAGAGGGC | 0.986 ± 0.034 |
| CGTAGATAGC | 1.07 ± 0.02 |
| CGTAGATTTT | 1 ± 0.046 |
| CGTAGCGTCC | 1.13 ± 0.019 |
| CGTAGCTTTG | 1.086 ± 0.0028 |
| CGTAGGAGG | 0.9784 ± 0.0044 |
| CGTAGGTGCA | 1.05 ± 0.022 |
| CGTAGGTTTT | 1 ± 0.067 |
| CGTAGTGTAG | 1.02 ± 0.052 |
| CGTAGTTGG | 0.988 ± 0.049 |
| CGTATAAATC | 1.01 ± 0.043 |
| CGTATACTGA | 1.01 ± 0.055 |

| Sequence | switch fluorescence ratio |
| --- | --- |
| CGTATATGGC | 1.1 ± 0.14 |
| CGTATCTCTA | 0.989 ± 0.01 |
| CGTATGCCGG | 0.9999 ± 0.0091 |
| CGTATGGCCA | 1.0198 ± 0.00072 |
| CGTATTGAGA | 0.968 ± 0.057 |
| CGTATTGCGT | 1.01 ± 0.025 |
| CGTATTTATT | 1.01 ± 0.021 |
| CGTATTTGAG | 1 ± 0.037 |
| CGTATTTGGG | 0.999 ± 0.034 |
| CGTATTTGTA | 1.01 ± 0.028 |
| CGTATTTTTT | 1.01 ± 0.032 |
| CGTCACGGGA | 1.05 ± 0.036 |
| CGTCATATGC | 1.29 ± 0.073 |
| CGTCATGCTC | 1.19 ± 0.036 |
| CGTCCACAGG | 2.96 ± 0.092 |
| CGTCGACCGG | 1 ± 0.022 |
| CGTCGAGGGA | 1.1 ± 0.12 |
| CGTCGCAGTG | 1.03 ± 0.052 |
| CGTCGTATAA | 1.02 ± 0.021 |
| CGTCGTGATA | 1.2 ± 0.014 |
| CGTCTAATAG | 1.18 ± 0.03 |
| CGTCTGAATG | 0.9983 ± 0.0024 |
| CGTCTGGGCG | 0.957 ± 0.097 |

| Sequence | switch fluorescence ratio |
| --- | --- |
| CGTCTGGTGC | 1.03 ± 0.029 |
| CGTCTGTCGG | 1.03 ± 0.019 |
| CGTCTTTTAT | 0.9935 ± 0.0043 |
| CGTCTTTTGG | 1.02 ± 0.025 |
| CGTGAAAGCG | 0.9683 ± 0.005 |
| CGTGAAGGCG | 0.952 ± 0.024 |
| CGTGAAGGGT | 0.992 ± 0.013 |
| CGTGACGGTA | 1.042 ± 0.0014 |
| CGTGAGAGTG | 0.9781 ± 0.0021 |
| CGTGATGATT | 0.9809 ± 0.0078 |
| CGTGATGGGG | 1.04 ± 0.071 |
| CGTGATTTGG | 1.006 ± 0.0065 |
| CGTGCAAATT | 0.985 ± 0.026 |
| CGTGCACAAA | 0.9815 ± 0.0059 |
| CGTGCCCGTG | 1 ± 0.017 |
| CGTGCGGGTG | 1.03 ± 0.006 |
| CGTGCGTGTA | 1.02 ± 0.053 |
| CGTGCTCTAC | 1.5 ± 0.068 |
| CGTGCTTTTC | 1.15 ± 0.22 |
